Laboratory results as given in article PMC2652481.

Target: TAF-4 (UniProt O61707)
Test: membrane recruitment of GFP::TAF-4 by Myr::FLAG::OMA-1-FL
Conditions: sites T239

other: percent of cells with membrane GFP::TAF-4 (reference: wild type OMA-1-FL with MBK-2)	other: percent of cells with membrane GFP::TAF-4 (reference: kinase-dead MBK-2 (Y237A) coexpressed)	other: percent of cells with membrane GFP::TAF-4 (reference: no MBK-2 coexpressed)	Substance
weaker; reference 48			OMA-1 (from UniProt G5EC86) T239A with MBK-2
	stronger; reference 16	stronger; reference 8	OMA-1 (from UniProt G5EC86) MBK-2 coexpressed
